Assay [1] has as its target oxidized LDL (oxidized low-density lipoprotein) (UniProt P04114). The assay can be described thus: competition ELISA on coated oxLDL; wells preincubated with Pentaglobin; competitor: IgG autoantibodies of COVID-19 sera.
The target is the same in assay [2]. Kind of assay: competition ELISA on coated oxLDL; wells preincubated with Pentaglobin; competitor: IgA autoantibodies of COVID-19 sera. On the technique in general: ELISA stands for enzyme-linked immunosorbent assay.

Regarding “Pentaglobin (human polyclonal immunoglobulin infusion preparation enriched for IgM and IgA)”, the percent inhibition of autoantibody binding to oxLDL in assay [1] and in assay [2] was greater than 20% in each case.

For the origin of these results see patent US20230295281A1.
